Molecular target: human zFGF5 (human) (UniProt O76093)
Assay: cell-based or functional assay

human zFGF5 (human), sequence (O76093 28-207): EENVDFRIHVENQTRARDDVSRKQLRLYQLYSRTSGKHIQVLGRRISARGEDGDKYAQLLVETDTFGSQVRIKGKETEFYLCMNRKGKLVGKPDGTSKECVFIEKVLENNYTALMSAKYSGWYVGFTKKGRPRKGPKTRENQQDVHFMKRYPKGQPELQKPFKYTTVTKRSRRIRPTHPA

| Substance | Cell Proliferation (percent of control), BAF3 cells expressing FGFR3α-IIIc with zFGF5, soluble receptor at 0 fold-excess (percent of control) | Cell Proliferation (percent of control), BAF3 cells expressing FGFR3α-IIIc with zFGF5, soluble receptor at 62.5 fold-excess (percent of control) | Cell Proliferation (percent of control), BAF3 cells expressing FGFR3α-IIIc with zFGF5, soluble receptor at 125 fold-excess (percent of control) | Cell Proliferation (percent of control), BAF3 cells expressing FGFR3α-IIIc with zFGF5, soluble receptor at 250 fold-excess (percent of control) | Cell Proliferation (percent of control), BAF3 cells expressing FGFR3α-IIIc with zFGF5, soluble receptor at 500 fold-excess (percent of control) | Cell Proliferation (percent of control), BAF3 cells expressing FGFR3α-IIIc with zFGF5, soluble receptor at 1000 fold-excess (percent of control) | Cell Proliferation (percent of control), BAF3 cells expressing FGFR3α-IIIc with zFGF5, soluble receptor at 0.8 fold-excess (percent of control) | Cell Proliferation (percent of control), BAF3 cells expressing FGFR3α-IIIc with zFGF5, soluble receptor at 1.6 fold-excess (percent of control) | Cell Proliferation (percent of control), BAF3 cells expressing FGFR3α-IIIc with zFGF5, soluble receptor at 3.2 fold-excess (percent of control) | Cell Proliferation (percent of control), BAF3 cells expressing FGFR3α-IIIc with zFGF5, soluble receptor at 6.3 (printed 6..3) fold-excess (percent of control) | Cell Proliferation (percent of control), BAF3 cells expressing FGFR3α-IIIc with zFGF5, soluble receptor at 12.5 fold-excess (percent of control) | Cell Proliferation (percent of control), BAF3 cells expressing FGFR3α-IIIc with zFGF5, soluble receptor at 25 fold-excess (percent of control) | Cell Proliferation (percent of control), BAF3 cells expressing FGFR3α-IIIc with zFGF5, soluble receptor at 50 fold-excess (percent of control) | Cell Proliferation (percent of control), BAF3 cells expressing FGFR3α-IIIc with zFGF5, soluble receptor at 100 fold-excess (percent of control) |
| --- | --- | --- | --- | --- | --- | --- | --- | --- | --- | --- | --- | --- | --- | --- |
| FGFR2α-IIIb/Fc soluble receptor (from UniProt P21802 22-378) (Fc fusion) | 100 | 101 | 90 | 91 | 101 | 99 | – | – | – | – | – | – | – | – |
| FGFR3α-IIIc/Fc soluble receptor (Fc fusion) | 100 | – | – | – | – | – | 85 | 66 | 37 | 5 | 1 | 0.2 | 0 | 0 |

— patent US20070099837A1
